# Data from paper PMC6570770, “In situ structure and assembly of the multidrug efflux pump AcrAB-TolC” (Nature Communications, 2019).
# B1: AcrA (periplasmic adaptor protein of the AcrAB-TolC multidrug efflux pump) (natural protein)
# chain: CDDKQAQQGGQQMPAVGVVTVKTEPLQITTELPGRTSAYRIAEVRPQVSGIILKRNFKEGSDIEAGVSLYQIDPATYQATYDSAKGDLAKAQAAANIAQLTVNRYQKLLGTQYISKQEYDQALADAQQANAAVTAAKAAVETARINLAYTKVTSPISGRIGKSNVTEGALVQNGQATALATVQQLDPIYVDVTQSSNDFLRLKQELANGTLKQENGKAKVSLITSDGIKFPQDGTLEFSDVTVDQTTGSITLRAIFPNPDHTLLPGMFVRARLEEGLNPNAILVPQQGVTRTPRGDATVLVVGADDKVETRPIVASQAIGDKWLVTEGLKAGDRVVISGLQKVRPGVQVKAQEVTADNNQQAASGAQPEQSKS
# notes: also called periplasmic adaptor protein AcrA; source: E. coli BL21 (DE3), overexpressed from plasmid pAcBH (acrAB locus), in intact cells
# Molecular target: the molecule itself
# Experiment: cryo-EM structure
protein,measurement,value
B1,stoichiometry N,6
